Reference: ChEMBL document CHEMBL3826949, “Characterization of the action of tyrosinase on resorcinols” (Bioorg Med Chem, 2016)
Calls of active or inactive are those of the source. The calls are words filed in the database; no cut-off is given here.

Experiments:
Tyrosinase [1] = molecular target: T1, Tyrosinase (Agaricus bisporus, UniProt O42713); assay: Inhibition of mushroom tyrosinase using L-dopa as substrate assessed as diphenolase activity by spectrophotometric analysis
T1 sequence (O42713 whole entry): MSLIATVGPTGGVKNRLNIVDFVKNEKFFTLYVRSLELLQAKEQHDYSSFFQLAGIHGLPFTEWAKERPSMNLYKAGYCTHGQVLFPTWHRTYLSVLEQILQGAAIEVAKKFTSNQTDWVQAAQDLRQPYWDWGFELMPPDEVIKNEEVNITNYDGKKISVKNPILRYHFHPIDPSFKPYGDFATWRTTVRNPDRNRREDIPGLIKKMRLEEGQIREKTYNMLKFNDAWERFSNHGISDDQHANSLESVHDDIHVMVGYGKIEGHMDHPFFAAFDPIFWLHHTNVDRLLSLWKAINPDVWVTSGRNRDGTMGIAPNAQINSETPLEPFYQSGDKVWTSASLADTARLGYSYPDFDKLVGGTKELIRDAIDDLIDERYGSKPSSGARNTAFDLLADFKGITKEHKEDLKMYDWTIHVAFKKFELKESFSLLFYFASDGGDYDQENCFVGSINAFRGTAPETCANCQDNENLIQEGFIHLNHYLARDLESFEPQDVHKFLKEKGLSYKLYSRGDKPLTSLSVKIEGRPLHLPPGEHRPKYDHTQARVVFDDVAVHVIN

[2] = molecular target: T2, Tyrosinase (Agaricus bisporus) (UniProt O42713); assay: Inactivation of mushroom tyrosinase using TBC as substrate assessed as reduction in p-quinone accumulation pre-incubated at 0.3 mM for longer time duration during 0 to 500 secs by spectrophotometric analysis
T2 sequence (whole entry): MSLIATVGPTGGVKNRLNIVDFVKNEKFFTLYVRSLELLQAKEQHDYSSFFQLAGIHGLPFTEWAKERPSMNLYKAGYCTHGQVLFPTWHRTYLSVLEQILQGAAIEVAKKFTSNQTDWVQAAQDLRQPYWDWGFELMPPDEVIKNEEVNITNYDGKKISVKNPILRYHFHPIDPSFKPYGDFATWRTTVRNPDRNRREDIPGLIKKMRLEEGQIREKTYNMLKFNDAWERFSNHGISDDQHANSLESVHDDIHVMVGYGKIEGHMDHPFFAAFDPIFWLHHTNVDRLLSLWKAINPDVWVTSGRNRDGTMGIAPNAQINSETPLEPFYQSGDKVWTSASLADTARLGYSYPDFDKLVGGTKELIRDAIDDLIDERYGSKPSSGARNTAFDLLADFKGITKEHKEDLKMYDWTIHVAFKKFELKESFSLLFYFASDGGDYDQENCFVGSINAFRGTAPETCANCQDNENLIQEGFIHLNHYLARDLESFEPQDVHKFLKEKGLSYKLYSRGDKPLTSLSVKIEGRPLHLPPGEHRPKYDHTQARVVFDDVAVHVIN

[3] = molecular target: T2, Tyrosinase (Agaricus bisporus); assay: Activity of mushroom tyrosinase using TBC as substrate assessed as accumulation of p-quinone in presence of H2O2 spectrophotometric analysis
[4] = molecular target: T2, Tyrosinase (Agaricus bisporus); assay: Inactivation of mushroom tyrosinase using TBC as substrate assessed as reduction in p-quinone accumulation pre-incubated at 0.3 mM for shorter time duration during 0 to 500 secs by spectrophotometric analysis
Tyrosinase [5] = molecular target: T1, Tyrosinase; assay: Inhibition of mushroom tyrosinase using L-tyrosine as substrate assessed as monophenolase activity by spectrophotometric analysis
[6] = molecular target: T2, Tyrosinase (Agaricus bisporus); assay: Substrate activity at mushroom tyrosinase using TBC as substrate assessed as increase in TBC oxidation at 0.05 to 0.50 mM by spectrophotometric analysis
[7] = molecular target: T2, Tyrosinase (Agaricus bisporus); conditions: 30 uM
Description: Inhibition of mushroom tyrosinase activity using TBC as substrate assessed as recovery of enzyme activity at 30 uM preincubated for 60 mins

[8] = substrate: Oc1ccc(O)cc1; assay: (§1) Substrate activity at mushroom tyrosinase assessed as Kcat/Km ratio for monophenolase activity in presence H2O2 by spectrophotometry based Michaelis-Menten plot analysis; conditions: Agaricus bisporus
[9] = substrate: CCOc1ccc(O)cc1; assay: as §1; conditions: Agaricus bisporus
[10] = substrate: CCc1ccc(O)cc1O; assay: as §1; conditions: Agaricus bisporus
[11] = substrate: COc1ccc(O)cc1; assay: as §1; conditions: Agaricus bisporus
[12] = substrate: Oc1cccc(O)c1; assay: as §1; conditions: Agaricus bisporus
[13] = substrate: Cc1c(O)cccc1O; assay: as §1; conditions: Agaricus bisporus
[14] = substrate: N[C@@H](Cc1ccc(O)cc1)C(=O)O; assay: as §1; conditions: Agaricus bisporus
[15] = substrate: Cc1ccc(O)cc1O; assay: as §1; conditions: Agaricus bisporus
[16] = substrate: Oc1ccccc1; assay: as §1; conditions: Agaricus bisporus
[17] = substrate: Oc1ccc(O)cc1; assay: (§2) Substrate activity at mushroom tyrosinase assessed as Km for monophenolase activity in presence H2O2 by spectrophotometry based Michaelis-Menten plot analysis; conditions: Agaricus bisporus
[18] = substrate: CCOc1ccc(O)cc1; assay: as §2; conditions: Agaricus bisporus
[19] = substrate: CCc1ccc(O)cc1O; assay: as §2; conditions: Agaricus bisporus
[20] = substrate: COc1ccc(O)cc1; assay: as §2; conditions: Agaricus bisporus
[21] = substrate: Oc1cccc(O)c1; assay: as §2; conditions: Agaricus bisporus
[22] = substrate: Cc1c(O)cccc1O; assay: as §2; conditions: Agaricus bisporus
[23] = substrate: N[C@@H](Cc1ccc(O)cc1)C(=O)O; assay: as §2; conditions: Agaricus bisporus
[24] = substrate: Cc1ccc(O)cc1O; assay: as §2; conditions: Agaricus bisporus
[25] = substrate: Oc1ccccc1; assay: as §2; conditions: Agaricus bisporus
[26] = substrate: Oc1ccc(O)cc1; assay: (§3) Substrate activity at mushroom tyrosinase assessed as Kcat for monophenolase activity in presence H2O2 by spectrophotometry based Michaelis-Menten plot analysis; conditions: Agaricus bisporus
[27] = substrate: CCOc1ccc(O)cc1; assay: as §3; conditions: Agaricus bisporus
[28] = substrate: CCc1ccc(O)cc1O; assay: as §3; conditions: Agaricus bisporus
[29] = substrate: COc1ccc(O)cc1; assay: as §3; conditions: Agaricus bisporus
[30] = substrate: Oc1cccc(O)c1; assay: as §3; conditions: Agaricus bisporus
[31] = substrate: Cc1c(O)cccc1O; assay: as §3; conditions: Agaricus bisporus
[32] = substrate: N[C@@H](Cc1ccc(O)cc1)C(=O)O; assay: as §3; conditions: Agaricus bisporus
[33] = substrate: Cc1ccc(O)cc1O; assay: as §3; conditions: Agaricus bisporus
[34] = substrate: Oc1ccccc1; assay: as §3; conditions: Agaricus bisporus

## Cc1ccc(O)cc1O
Tyrosinase [1]
  IC50: 3.3 µM
[2]
  inhibition: inactive
[3]
  Activity: Active
[4]
  inhibition: Active
Tyrosinase [5]
  IC50: 9.31 µM

## Oc1cccc(O)c1 [RESORCINOL]
[6]
  Activity: Active
Tyrosinase [1]
  IC50: 652 µM
[2]
  inhibition: inactive
[3]
  Activity: Active
[4]
  inhibition: Active
Tyrosinase [5]
  IC50: 1130 µM

## CCc1ccc(O)cc1O
[6]
  Activity: Active
Tyrosinase [1]
  IC50: 1.1 µM
[7]
  inhibition: inactive
[2]
  inhibition: inactive
[3]
  Activity: Active
[4]
  inhibition: Active
Tyrosinase [5]
  IC50: 1.9 µM

## Cc1c(O)cccc1O
[6]
  Activity: Active
Tyrosinase [1]
  IC50: 717 µM
[3]
  Activity: Active
Tyrosinase [5]
  IC50: 1420 µM

B1: Tyrosinase (Agaricus bisporus), O42713 (protein)
chain: MSLIATVGPTGGVKNRLNIVDFVKNEKFFTLYVRSLELLQAKEQHDYSSFFQLAGIHGLPFTEWAKERPSMNLYKAGYCTHGQVLFPTWHRTYLSVLEQILQGAAIEVAKKFTSNQTDWVQAAQDLRQPYWDWGFELMPPDEVIKNEEVNITNYDGKKISVKNPILRYHFHPIDPSFKPYGDFATWRTTVRNPDRNRREDIPGLIKKMRLEEGQIREKTYNMLKFNDAWERFSNHGISDDQHANSLESVHDDIHVMVGYGKIEGHMDHPFFAAFDPIFWLHHTNVDRLLSLWKAINPDVWVTSGRNRDGTMGIAPNAQINSETPLEPFYQSGDKVWTSASLADTARLGYSYPDFDKLVGGTKELIRDAIDDLIDERYGSKPSSGARNTAFDLLADFKGITKEHKEDLKMYDWTIHVAFKKFELKESFSLLFYFASDGGDYDQENCFVGSINAFRGTAPETCANCQDNENLIQEGFIHLNHYLARDLESFEPQDVHKFLKEKGLSYKLYSRGDKPLTSLSVKIEGRPLHLPPGEHRPKYDHTQARVVFDDVAVHVIN
[8]
  kcat/Km: 110000 M⁻¹ s⁻¹
[9]
  kcat/Km: 776000 M⁻¹ s⁻¹
[10]
  kcat/Km: 51300 M⁻¹ s⁻¹
[11]
  kcat/Km: 2.3e+06 M⁻¹ s⁻¹
[12]
  kcat/Km: 39900 M⁻¹ s⁻¹
[13]
  kcat/Km: 3700 M⁻¹ s⁻¹
[14]
  kcat/Km: 37600 M⁻¹ s⁻¹
[15]
  kcat/Km: 38100 M⁻¹ s⁻¹
[16]
  kcat/Km: 18100 M⁻¹ s⁻¹
[17]
  Km: 920 µM
[18]
  Km: 170 µM
[19]
  Km: 117 µM
[20]
  Km: 80 µM
[21]
  Km: 460 µM
[22]
  Km: 2700 µM
[23]
  Km: 210 µM
[24]
  Km: 203 µM
[25]
  Km: 700 µM
[26]
  kcat: 102 s⁻¹
[27]
  kcat: 132 s⁻¹
[28]
  kcat: 6 s⁻¹
[29]
  kcat: 184 s⁻¹
[30]
  kcat: 18.3 s⁻¹
[31]
  kcat: 9.94 s⁻¹
[32]
  kcat: 7.9 s⁻¹
[33]
  kcat: 7.73 s⁻¹
[34]
  kcat: 12.7 s⁻¹
